The results in this text go back to PMC8982573 (EMBO Reports, 2022).

The assay deals with SARS-CoV-2 spike receptor-binding domain fused to Venus YFP (RBD-vYFP) (SARS-CoV-2, UniProt P0DTC2 330-526, chemically biotinylated using NHS-Biotin). Nature of the assay: grating-coupled interferometry (GCI). The note with it: both partners purified.

B1: Sybody Sb#15 (VHH)
VHH: QVQLVESGGGLVQAGGSLRLSCAASGFPVKNFEMEWYRKAPGKEREWVAAIQSGGVETYYADSVKGRFTISRDNAKNTVYLQMNSLKPEDTAVYYCFVYVGRSYIGQGTQVTVS
notes: also called Sb#y15; source: E. coli MC1061, periplasm, purified (Ni-NTA, SEC)
Turning to B1, binding was characterised by a dissociation constant (Kd) of 14.4 nM.
